The supplement of paper PMC12636428

Tested on: Saccharomyces cerevisiae
Assay: transcriptional activation domain activity (GFP:mCherry ratio, weighted mean of sorted bins, harmonized to initial dataset scale) (arbitrary fluorescence ratio units); higher = stronger transcriptional activation
Conditions: beta-estradiol 1 µM; induction time 4 h
How it was run: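 Barcoded protein tiles fused to an estradiol-inducible synthetic transcription factor were integrated at the yeast URA3 locus, in diploids carrying a GFP reporter. Cultures were diluted 1:5 into SC with 1 uM beta-estradiol, held 4 hours at 30 °C, sorted into 8 bins by GFP:mCherry ratio, and barcodes sequenced. Tiles under 50 reads were discarded. Activation activity is the read-weighted mean of bin median fluorescence, averaged across barcodes, then linearly mapped onto the initial dataset scale.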

Sequence | transcriptional activation domain activity
MIRWVFFRGYLGQEGFLSFLFFFVFFSGLSLWERIGYGFFILPSFYMDLLFLA | 58300
MSSNYENQAQQESDQGSSSKSQKSRHRASVACATCRERRIRCVVPAGEASCAQ | 43100
FAEQGWQVVYYSWQWSLGVYIHYYLPSSVWAGYPHISLPVVIKVYYLMQISLY | 37900
QFARFTLEETNLMWKRAANPELTPLTSFPPLWVATRLRLFYVINSILSYFMTT | 60800
ALKVVVRVKMFGIGPLIYCSCLFVLLFSVVLLLLLAALYLMLQIYAALVVSAV | 47100
MVFSFLLDILAGILYYYLVLGSHILASCFDYRWFYFFFFFFVLFFSLLFSVFL | 61900
LSSFFLGLLHIGFSLVGYLSLLRISPNVFSVLPRDHTWFNISRFLVLCTILPL | 59300
FTFILMMACLVSGIGWCLLYFTCMYLLLIYYILSLFYPPLASCNSFSFFFSFV | 64100
KGKGRRRGRGRGRGRGRGREGKGKGREGEGKGKGKEKGKGKGKGKGKGKGKGR | 28000
FDQYLFESISGLILRVQFIGGALPDSISIFEPTLFPPFTEILQGDIDQYIPYV | 51300
SLQEIDKMRVDGKFVDSEGIGRRPICVSSSILKQVLLYLLRRCYGLIYRLLSS | 33800
LFCLPDTAACGAMHAWRSWATSFLLFSFFAAICGQFFSLLFSYLLLFLCYWVI | 42900
SGLAFRNFWIRRISFAGHLRNSNSALTPSRYFRLMSMAVVQMFWGLVVTSLYT | 46800
GIPDELAWMLCLDGLDCIDGETYNLPLLRQFMELFPSLPLTSLLTAYFLYMDI | 119000
GSNIQWLVTKWREMGCRKGPIELTKFLTGLLCVNPFSLTPEKGARLLIKLLSI | 62200
LIVIRIVNPVIMYFFISCFYSLLSVAFQVPFNRYYGSSGFVIYWMMSWLAMCA | 55900
SSSEEGSDGEEGDGEKDKDAKEKDGKDADGDVDMDADGKPKPKKAKPKKSTKK | 31500
SSSDFVPVNFEADSLPYTPTTLDGLASLTSLEDLFSADDALASFDWSEWPWIY | 156000
KLIKHNKNVRTWWKKDDQFWVPRGHIHVYFRTPIIGITVRAQLTASLFINLVH | 47300
MAGDDEEGRDADGEPDNAATPAKRQRVSRACDQCRAARERCDGKPQCHPCVSQ | 34100
MQFSLLFFFCLLFPPLLLFLCSFFFSFLFLEIFGFVNCLGFRRSHFQRQALLV | 54500

Sequence | transcriptional activation domain activity
DGVKGWAVGVVVAGPFMAGLIKLIRWAGDSFVAYVVVFLFVFQLVAMTLYPTL | 19000
MPLSPPLYFIVFLYLQFQLYAYFICYFYILLSFYSSTHPVLSFYPLYYPFYLL | 61300
GRILIMLFLWLILRLQIRIVVREVLSRPCCCPFSTITSCAALEQYQRVYDQTA | 36700
DADSAQVAGECVVCQDEEANVVIVECGYVSLIIHLTLHRFIVLASLVISHYAQ | 63900
HKWIIPTPFASHAFHPVDGYLQSVPYHLFVFIFPLHRILYLVLFVLINFWTIF | 62300
GQGPLRSSYSMAYDSPVDRAMNTPLQQQEGLKAELPHDFLFQHGTDDTMYNLT | 36100
RLSASKIYIWCSGGVVFAIVLALQVLVLLALLNVITCLEGHMLSIHGWPRGEC | 31100
MLCLCTIWIYNAQICYYLSSCSTLLVTDCCCCYYYSLLFYILTSSFFQILLST | 50100
MTEREPDNEQQPRKRIAVACGRCRKRKIRCSGDPGNGEPCTNCRNANAEPCQF | 38700
DNMHVPGRFKDPNFLFYIQTMISSYALPFVRKAAILMHVRYGVELPSIPFECV | 75400
APTLNYELARKFIENSEDALHNSETMDLLGTLSHGNDFALEYNFDFTLLNEID | 121000
RQRQQNGRAPRAPRAEKPTDGFEVKEGRGERRGRGEGRGEGRGRGRGGRGRGR | 13000
MLLNLRGHIDEHLQYIIATSFKLMDTAETFALRLANLEVLINTVLYNAAAALH | 48600
LNLRRPLAFGGMATLLTYLIVPIYFSGVCYRLRLTLPPFLFLILRVSFELFVL | 67800
GAVMPILMQFFFIMAWNGICNGMHLYAAYNLRTHVLARLFWSILWPLLSSLCS | 59900
KPLSIILGLVNVFVLYNYLSTGVSLWMISLRFSSFSCRFLADVFSCLLVFLLC | 60600
IGLQVLLGWSYVMINPLAIYSSPYLILFSFSSLVYLVLVNVLTLPSSLPFFHP | 87600
MGNGSVLLFLLFLCYGKGLGFFIFTFFFLFYLCIIYFFFPLFYYYLPLLSAGW | 67100
GGADTKQGAKIACLECRTAKIKCSAPTDGVVPCRRCVRHGRECIFEKHRRGRK | 42200
MEACMSIMMIPMILRNGTVFSFFFRVMLYFTCIVSMAGWLVPGSYWLWFGLVC | 48100
MYYIIISYDYFLIILIPIIDTCYPFKDFCIIFFIYPLLLHYAIFYYLRLVFIY | 45100
